Measurements: paper PMC7617963 (Current biology : CB, 2024)

Target: the molecule itself
Assay: cross-linking; BS3 cross-linker mixed 1:1 (w/w) with protein at 1 mg/ml, 30 minutes at room temperature, quenched with 200 mM ammonium bicarbonate, resolved by SDS-PAGE

B1: CENP-E_(2452-2598) (domain or fragment, human, UniProt Q02224-1 2452-2598, looked up)
chain: PYKEEIEDLKMKLVKIDLEKMKNAKEFEKEISATKATVEYQKEVIRLLRENLRRSQQAQDTSVISEHTDPQPSNKPLTCGGGSGIVQNTKALILKSEHIRLEKEISKLKQQNEQLIKQKNELLSNNQHLSNEVKTWKERTLKREAHK
notes: CENP-E (centromere-associated protein E), residues 2452-2598; cell constructs were generated from CENP-E transcript variant 1 (NM_001813.2); cloned into pET3aTr for expression; The purification says that the His tag was cleaved with 3C protease, yet the crystallisation and cross-linking methods call the protein His6-CENP-E_(2452-2598); also called His6-CENP-E_(2452-2598); minimal corona-targeting …
stoichiometry N: 2
